The target in test [1] is (His)10-p34(37–319) (Helicobacter pylori). In words: SEC; in the presence of 4 M urea; Superose 6 10/300 GL for (His)10-p34, Superose 12 10/300 GL (1.0 ml/min) for (His)10-p34ΔN/ΔC; mass against marker proteins.
For test [2] the target is unchanged. Kind of test: SEC; Superose 6 10/300 GL, 0.5 ml/min, in the presence of 10% glycerol; mass from the Kav of the most prominent peak against marker proteins.
Test [3] has the same target. In words: SEC; Superose 6 10/300 GL, in the presence of 2 M urea. In general terms: In gel filtration, larger molecules generally elute earlier.
Test [4] has as its target (His)10-p34ΔN/ΔC (p34 residues 37–292 linked to a 10 histidine tag) (Helicobacter pylori). Kind of test: SEC; in the presence of 4 M urea; Superose 6 10/300 GL for (His)10-p34, Superose 12 10/300 GL (1.0 ml/min) for (His)10-p34ΔN/ΔC; mass against marker proteins.

As a reminder, the stoichiometry N is a count of units in the complex or per binding partner. With “(His)10-p34(37–319) (domain or fragment)”, the stoichiometry N in test [1], in test [2] and in test [3] was 6 subunits throughout.

Take “(His)10-p34ΔN/ΔC (p34 residues 37–292 linked to a 10 histidine tag) (domain or fragment)”: the stoichiometry N in test [4] was 6 subunits.

Source of the values: paper PMC2861713.
